Reference: PMC8569552, “Basolateral protein Scribble binds phosphatase PP1 to establish a signaling network maintaining apicobasal polarity” (The Journal of Biological Chemistry, 2021)

Biological target: the molecule itself
Assay: native gel or EMSA; BN-PAGE (Native-PAGE Novex Bis-Tris) of 1% Triton X-100 lysates of DLD20-2 cells expressing the tagged protein, no cross-linking; blot probed for GFP

B1: sLUR-517GFP (domain or fragment, human, UniProt Q14160 1-517, looked up)
chain: MLKCIPLWRCNRHVESVDKRHCSLQAVPEEIYRYSRSLEELLLDANQLRELPKPFFRLLNLRKLGLSDNEIQRLPPEVANFMQLVELDVSRNDIPEIPESIKFCKALEIADFSGNPLSRLPDGFTQLRSLAHLALNDVSLQALPGDVGNLANLVTLELRENLLKSLPASLSFLVKLEQLDLGGNDLEVLPDTLGALPNLRELWLDRNQLSALPPELGNLRRLVCLDVSENRLEELPAELGGLVLLTDLLLSQNLLRRLPDGIGQLKQLSILKVDQNRLCEVTEAIGDCENLSELILTENLLMALPRSLGKLTKLTNLNVDRNHLEALPPEIGGCVALSVLSLRDNRLAVLPPELAHTTELHVLDVAGNRLQSLPFALTHLNLKALWLAENQAQPMLRFQTEDDARTGEKVLTCYLLPQQPPPSLEDAGQQGSLSETWSDAPPSRVSVIQFLEAPIGDEDAEEAAAEKRGLQRRATPHPSELKVMKRSIEGRRSEACPCQPDSGSPLPAEEEKRLSAE
notes: Scribble, LAP unique region (sLUR): LRR domain of 17 LRRs, LAPSDa and LAPSDb; the discussion calls the tag mGFP; also called full-length sLUR; source: DLD20-2 cells (LAP protein-deficient DLD1), transfected clones, in lysate
In the case of B1, the “stoichiometry N” value is reported as 2.
